From the RNAGym collection of RNA variant scans (doi:10.7554/elife.90254)

B1: OR4K15 (parent)
chain: GUUAACGGUCAUAGGCCAUGGAAACUAGGAGCACCAUUUCGCUGCCAGUGAAGAAAUGAACAAAGAAAAUCUGGGCCAGGCAGGCAUCAAAAGAAAUAGUCUUGCGCUCAACCAGAAAGUCUGUAAUCAUUUUAAGGGUA

Variants of: B1
Assay: self-cleavage, relative activity (ratio to wild type); higher = more cleavage; in vitro, sequencing; the parent is a self-cleaving ribozyme

Variant | self-cleavage
GUUAACGGUCAUAGGCCAUGGAAACUAGGAGCACCAUUUCGCUGCCAGAGAAGAAAUGAACAAAGAAAAUCUGGGCCAGGCUGGCAUCAAAAGAAAUAGUCUUGCGCUCAACCAGAAAGUCUGUAAUCAUUUUAAGGGUA | 0.18
GUUAACGGUCAUAGGCCAUGGAAACUAGGAGCACCAUUUCGCUGCCAGAGAAGAAAUGAACAAAGAAGAUCUGGGCCAGGCAGGCAUCAAAAGAAAUAGUCUUGCGCUCAACCAGAAAGUCUGUAAUCAUUUUAAGGGUA | 0.95
GUUAACGGUCAUAGGCCAUGGAAACUAGGAGCACCAUUUCGCUGCCAGAGAAGAAAUGAACAAAGAAAAUCUGGGCCAGGCAGGCAUCAAAAGAAAUAGUCUUGUGCUCAACCAGAAAGUCUGUAAUCAUUUUAAGGGUA | 0.15
GUUAACGGUCAUAGGCCAUGGAAACUAGGAGCACCAUUUCGCUGCCAGAGAAGAAAUGAACAAAGAAAAUCUGGGCCAGGCAGGCAUCAAAAGAAAUAGUCUUGCGCUCAACCAGAAAGUCUGUGAUCAUUUUAAGGGUA | 0.82
GUUAACGGUCAUAGGCCAUGGAAACUAGGAGCACCAUUUCGCUGCCAGAGAAGAAAUGGACAAAGAAAAUCUGGGCCAGGCAGGCAUCAAAAGAAAUAGUCUUGCGCUCAACCAGAAAGUCUGUAAUCAUUUUAAGGGUA | 1.44
GUUAACGGUCAUAGGCCAUGGAAACUAGGAGCACCAUUUCGCUGCCAGAGAAGAAAUGAACAAAGAAAAUCUGGGCCAGGCAGGCAUCAAAAGAAAUAGUCUUGCGCUCAACCAGAAAGUCUGUAAUCAUGUUAAGGGUA | 1.06
GUUAACGGUCAUAGGCCAUGGAAACUAGGAGCACCAUUUCGCUGCCAGAGAAGAAAUGAACAAAGAAAAUCUGGGCCAGGCAGGCAUCAAAAGGAAUAGUCUUGCGCUCAACCAGAAAGUCUGUAAUCAUUUUAAGGGUA | 1.11
GUUAACGGUCAUAGGCCAUGGAAACUAGGAGCACCAUUUCGCUGCCAGAGAAGAAAUGAACAAAGAAAAUCUGGGCCAGGCAGGCAUCAAAAGAAAUAGUCUUGCGCUCAACCAGAAAGUCUGUAAUCAUUUUAAGGUUA | 1.69
GUUAACGGUCAUAGGCCAUGGAAACUAGGAGCACCAUUUCGCUGCCAGAGAAGAAAUGAACAAAGAAAAUCUGGGCCAGGCAGGCAUCAAAAGAAAUAGCCUUGCGCUCAACCAGAAAGUCUGUAAUCAUUUUAAGGGUA | 2.15
GUUAACGGUCAUAGGCCAUGGAAACUAGGAGCACCAUUUCGCUGCCAGAGAGGAAAUGAACAAAGAAAAUCUGGGCCAGGCAGGCAUCAAAAGAAAUAGUCUUGCGCUCAACCAGAAAGUCUGUAAUCAUUUUAAGGGUA | 0.96
GUUAACGGUCAUAGGCCAUGGAAACUAGGAGCACCAUUUCGCUGCCAGAGAAGAAAUGAACAAAGAAAAUCUGGGCCAGGCAGGCAUCAUAAGAAAUAGUCUUGCGCUCAACCAGAAAGUCUGUAAUCAUUUUAAGGGUA | 1.26
GUUAACGGUCAUAGGCCAUGGAAACUAGGAGCACCAUUUCGCUGCCAGAGAAGAAAUGAACAAAGAAAAUCUGGGCCAGGCAGGCAUCAAAAGAAAUAGUCUUGCGCUCAACCAGAAAGUCUGAAAUCAUUUUAAGGGUA | 0.56
GUUAACGGUCAUAGGCCAUGGAAACUAGGAGCACCAUUUCGCUGCCAGAGAAGGAAUGAACAAAGAAAAUCUGGGCCAGGCAGGCAUCAAAAGAAAUAGUCUUGCGCUCAACCAGAAAGUCUGUAAUCAUUUUAAGGGUA | 1.3
GUUAACGGUCAUAGGCCAUGGAAACUAGGAGCACCAUUUCGCUGCCAGAGAAGUAAUGAACAAAGAAAAUCUGGGCCAGGCAGGCAUCAAAAGAAAUAGUCUUGCGCUCAACCAGAAAGUCUGUAAUCAUUUUAAGGGUA | 0.89
GUUAACGGUCAUAGGCCAUGGAAACUAGGAGCACCAUUUCGCUGCCAGAGAAGAAAUGAACAAAGAAAAUCUGGGCCAGGCAGGCAUCAAAAGAAAUAGUCUUGCGUUCAACCAGAAAGUCUGUAAUCAUUUUAAGGGUA | 0.04
GUUAACGGUCAUAGGCCAUGGAAACUAGGAGCACCAUUUCGCUGCCAGAGAAGAAAUGAACAAAGAAAAUCUGGGCCAGGCAGGCAUCAAAAGAAGUAGUCUUGCGCUCAACCAGAAAGUCUGUAAUCAUUUUAAGGGUA | 1.12
GUUAACGGUCAUAGGCCAUGGAAACUAGGAGCACCAUUUCGCUGCCAGAGAAGAAAUGAACAAAGAAAAUCUGGGCCAGGCAGGCAUCAAAAGAAAUAGUCUUGCGCUCAACCAGAAAGUCUGUAAUCACUUUAAGGGUA | 1.53
GUUAACGGUCAUAGGCCAUGGAAACUAGGAGCACCAUUUCGCUGCCAGAGAAGAAAUGAACAAAGAAAAUCUGGGCCAGGCAGGCAUCAAAAGAAAUAGUCUGGCGCUCAACCAGAAAGUCUGUAAUCAUUUUAAGGGUA | 0.01
GUUAACGGUCAUAGGCCAUGGAAACUAGGAGCACCAUUUCGCUGCCAGAGAAGAAAUGAACAAAGAAAAUCUGGGCCAGGCAGGCAUCAAAAGAAAUAGUCUCGCGCUCAACCAGAAAGUCUGUAAUCAUUUUAAGGGUA | 0.93
GUUAACGGUCAUAGGCCAUGGAAACUAGGAGCACCAUUUCGCUGCCAGAGAAGAAAUGAACAAAGAAAAUCUGGGCCAGGCAGGCAUCAAAAGAAAUAGUCUUGCGCUCAACCAGAAAGUCUGUAAUCAUUUUGAGGGUA | 0.74
GUUAACGGUCAUAGGCCAUGGAAACUAGGAGCACCAUUUCGCUGCCAGAGAAGAAAUGAACAAAGAAAAUCUGGGCCAGGCAGGCAUCAAGAGAAAUAGUCUUGCGCUCAACCAGAAAGUCUGUAAUCAUUUUAAGGGUA | 1

Variant | self-cleavage
GUUAACGGUCAUAGGCCAUGGAAACUAGGAGCACCAUUUCGCUGCCAGAGAAGAAAUGAACGAAGAAAAUCUGGGCCAGGCAGGCAUCAAAAGAAAUAGUCUUGCGCUCAACCAGAAAGUCUGUAAUCAUUUUAAGGGUA | 0.7
GUUAACGGUCAUAGGCCAUGGAAACUAGGAGCACCAUUUCGCUGCCAGAGAAGAAAUGAACAAAGAAAAUCUGGGCCAGGCAGGCAUCAAAAGAAAUUGUCUUGCGCUCAACCAGAAAGUCUGUAAUCAUUUUAAGGGUA | 0.26
GUUAACGGUCAUAGGCCAUGGAAACUAGGAGCACCAUUUCGCUGCCAGAGAAGAAAUGAACAAAGAAAAUCUGGGCCAGGCAGGCAUCAAAAGAAAUGGUCUUGCGCUCAACCAGAAAGUCUGUAAUCAUUUUAAGGGUA | 0.44
GUUAACGGUCAUAGGCCAUGGAAACUAGGAGCACCAUUUCGCUGCCAGAGAAGAAAUGAACAAAGAAAAACUGGGCCAGGCAGGCAUCAAAAGAAAUAGUCUUGCGCUCAACCAGAAAGUCUGUAAUCAUUUUAAGGGUA | 0.66
GUUAACGGUCAUAGGCCAUGGAAACUAGGAGCACCAUUUCGCUGCCAGAGAAGAAAUGAACAAAGAAAAUCUGGGCCAGGCAGGCAUCAAAAGAAAUAGUCUUGCGCUCAACCUGAAAGUCUGUAAUCAUUUUAAGGGUA | 0.04
GUUAACGGUCAUAGGCCAUGGAAACUAGGAGCACCAUUUCGCUGCCAGAGAAGAAAUGAACAAAGAAAAUCUGGGCCAGGCAGGCAUCAAAAGAAAUAGUCUUGCGCUCAACCAGAAAGUCUGUAAUCAUUUUAAGAGUA | 1.92
GUUAACGGUCAUAGGCCAUGGAAACUAGGAGCACCAUUUCGCUGCCAGAGAAGAAAUGAACAAAGAAAAUCUGGGCCAGGCAGGCAUCAAAGGAAAUAGUCUUGCGCUCAACCAGAAAGUCUGUAAUCAUUUUAAGGGUA | 1.28
GUUAACGGUCAUAGGCCAUGGAAACUAGGAGCACCAUUUCGCUGCCAGAGAAGAAAUGAACAAAGAAAAUCCGGGCCAGGCAGGCAUCAAAAGAAAUAGUCUUGCGCUCAACCAGAAAGUCUGUAAUCAUUUUAAGGGUA | 0.16
GUUAACGGUCAUAGGCCAUGGAAACUAGGAGCACCAUUUCGCUGCCAGAGAAGAAAUGAACAAAGAAAAUCAGGGCCAGGCAGGCAUCAAAAGAAAUAGUCUUGCGCUCAACCAGAAAGUCUGUAAUCAUUUUAAGGGUA | 0.36
GUUAACGGUCAUAGGCCAUGGAAACUAGGAGCACCAUUUCGCUGCCAGAGAAGAAAUGAACAAAGAAAAUCUGGGCCAGGCAGGCAUCAAAAGAAAUAGUCUUGCGCUCAACCAGAAGGUCUGUAAUCAUUUUAAGGGUA | 1.31
GUUAACGGUCAUAGGCCAUGGAAACUAGGAGCACCAUUUCGCUGCCAGAGAAGAAAUGAACAAAGUAAAUCUGGGCCAGGCAGGCAUCAAAAGAAAUAGUCUUGCGCUCAACCAGAAAGUCUGUAAUCAUUUUAAGGGUA | 1.29
GUUAACGGUCAUAGGCCAUGGAAACUAGGAGCACCAUUUCGCUGCCAGAGAAGAAAUGAACAAAGCAAAUCUGGGCCAGGCAGGCAUCAAAAGAAAUAGUCUUGCGCUCAACCAGAAAGUCUGUAAUCAUUUUAAGGGUA | 1.48
GUUAACGGUCAUAGGCCAUGGAAACUAGGAGCACCAUUUCGCUGCCAGAGAAGAAAUGAACAAAGAAAAUCUGGGCCAGGCAGGCAUCAAAAGAAAUAGUCUUGCGCUCAACCAGAAAGUAUGUAAUCAUUUUAAGGGUA | 0.95
GUUAACGGUCAUAGGCCAUGGAAACUAGGAGCACCAUUUCGCUGCCAGAGAAGAAAUGAACAAAGAAAAUCUGGGCCAGGCAGGCAUCAAAAGAAAUAGUCUUGCGCUCAACCAGAAAGUCUGUAACCAUUUUAAGGGUA | 0.38
GUUAACGGUCAUAGGCCAUGGAAACUAGGAGCACCAUUUCGCUGCCAGAGAAGAAAUGAACAAAGAAAAUCUGGGCCAGGCAGGCAUCAAAAGAAAUAGUCUUGCGCUCAACCAGAAAGUCUGUAAGCAUUUUAAGGGUA | 1.97
GUUAACGGUCAUAGGCCAUGGAAACUAGGAGCACCAUUUCGCUGCCAGAGAAGAAAUGAACAAAGAAAAUCUGGGCCAGGCAGGCAUCAAAAGAAAUAGUCUUGCGCUCAACCAGAAAGCCUGUAAUCAUUUUAAGGGUA | 0.84
GUUAACGGUCAUAGGCCAUGGAAACUAGGAGCACCAUUUCGCUGCCAGAGAAGAAAUGAACAAAGAAAGUCUGGGCCAGGCAGGCAUCAAAAGAAAUAGUCUUGCGCUCAACCAGAAAGUCUGUAAUCAUUUUAAGGGUA | 1.49
GUUAACGGUCAUAGGCCAUGGAAACUAGGAGCACCAUUUCGCUGCCAGAGAAGAGAUGAACAAAGAAAAUCUGGGCCAGGCAGGCAUCAAAAGAAAUAGUCUUGCGCUCAACCAGAAAGUCUGUAAUCAUUUUAAGGGUA | 1.53
GUUAACGGUCAUAGGCCAUGGAAACUAGGAGCACCAUUUCGCUGCCAGAGAAGAAAUGAACAAAGAAAAUCUGGGCCAGGCAGGCAUCCAAAGAAAUAGUCUUGCGCUCAACCAGAAAGUCUGUAAUCAUUUUAAGGGUA | 0.85
GUUAACGGUCAUAGGCCAUGGAAACUAGGAGCACCAUUUCGCUGCCAGAGAAGAAAUGAACAAAGAAAAUCUGGGCCAGGCAGGCAUCAAAAGAAAUAGUCUUGCGCUCAACCAGAAAGUCUGUAGUCAUUUUAAGGGUA | 0.99
